Measured values: patent publication US20020188037A1, “Method and system for providing bioactive agent release coating” (priority 1999, published 2002)

Assay: Bioactive Agent Release Assay, dextran-TRITC under polymer topcoat on discs (Example 4)
Format: physicochemical
Settings: pEVA/pBMA topcoat coated at 48% relative humidity compared with 10% relative humidity; PBS, 37° C.; FIG. 2
Protocol: Two solutions were prepared in order to provide a coating composition in the form of a two part system. The first solution was an aqueous solution containing the bioactive agent, dextran-TRITC, at a concentration of 15 mg/ml. […] The poly(n-butyl methacrylate) and poly(ethylene-co-vinylacetate) were purified by extraction with organic solvents to remove impurities, e.g., monomer residues. The polymers of the second solution were dissolved in tetrahydrofuran at a concentration of 10 mg/ml.
Fifteen-millimeter diameter stainless steel discs with an overall thickness of two millimeters were fabricated with a nine-millimeter diameter flat pedestal. […] A surface treatment such as Parylene could be applied to the disc or the surface could be left untreated. The discs were weighed on a microbalance. The aqueous bioactive agent solution was applied to the pedestal surface of the discs with a pipette. The water evaporated from the discs and the discs were re-weighed on a microbalance to obtain the amount of the bioactive agent on the disc. The polymer coating solution containing poly(ethylene-co-vinylacetate) and poly(n-butyl methacrylate) was applied to the entire surface of the disc, covering the dextran. […]
Except as otherwise provided herein, each coated disc was placed in an amber vial with 4 mls of PBS. […] The concentration of bioactive agent in each PBS sample was determined using UV spectroscopy. […]

tetramethylrhodamine isothiocyanate-Dextran [dextran-TRITC]
release rate of the bioactive agent from the composite coating: faster rate
